The numbers were not newly measured in article PMC5713020, which cites them from elsewhere.

By Kd is commonly meant the constant that tells how readily two partners part at equilibrium.

Several values for one entry are separate records, joined by “and”; a condition that tells them apart may be missing. Identical values can stand only once.

For series [1], the target named is p53 (Homo sapiens) (UniProt P04637). Briefly: SPR. On the technique in general: SPR reads the build-up and loss of mass on a sensor chip optically.
In series [2] the target is MDM4 (Homo sapiens) (UniProt O15151). As to the kind of experiment: SPR.
The target is the same in series [3]. As to the kind of experiment: SPR (Langmuir isotherm).
Series [4] addresses p63 DBD (Homo sapiens) (UniProt Q9H3D4). As to the kind of experiment: AFS.
Series [5] concerns the target p73 (Homo sapiens) (UniProt O15350). As to the kind of experiment: AFS.

Sequence of Azurin (P00282 21-148): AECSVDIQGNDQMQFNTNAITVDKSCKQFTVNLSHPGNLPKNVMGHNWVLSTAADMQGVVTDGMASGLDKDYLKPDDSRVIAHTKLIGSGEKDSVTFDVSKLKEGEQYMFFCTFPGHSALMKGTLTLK
Sequence of MDM4 (Homo sapiens) (O15151 whole entry): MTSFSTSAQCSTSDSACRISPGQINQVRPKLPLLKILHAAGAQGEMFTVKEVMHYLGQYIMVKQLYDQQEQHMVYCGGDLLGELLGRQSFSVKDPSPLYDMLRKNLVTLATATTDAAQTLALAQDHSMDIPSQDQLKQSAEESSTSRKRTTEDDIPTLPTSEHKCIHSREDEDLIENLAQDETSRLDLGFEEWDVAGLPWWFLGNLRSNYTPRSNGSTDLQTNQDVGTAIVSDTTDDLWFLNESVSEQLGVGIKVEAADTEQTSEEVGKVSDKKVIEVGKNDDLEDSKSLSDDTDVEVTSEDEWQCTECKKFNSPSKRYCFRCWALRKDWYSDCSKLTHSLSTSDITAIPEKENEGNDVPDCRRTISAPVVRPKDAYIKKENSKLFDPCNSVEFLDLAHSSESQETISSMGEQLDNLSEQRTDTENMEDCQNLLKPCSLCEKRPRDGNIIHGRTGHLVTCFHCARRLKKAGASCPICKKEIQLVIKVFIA
Sequence of p28 p28 peptide (P00282 70-97): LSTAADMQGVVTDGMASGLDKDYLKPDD
Sequence of MDM2 (Q00987 whole entry): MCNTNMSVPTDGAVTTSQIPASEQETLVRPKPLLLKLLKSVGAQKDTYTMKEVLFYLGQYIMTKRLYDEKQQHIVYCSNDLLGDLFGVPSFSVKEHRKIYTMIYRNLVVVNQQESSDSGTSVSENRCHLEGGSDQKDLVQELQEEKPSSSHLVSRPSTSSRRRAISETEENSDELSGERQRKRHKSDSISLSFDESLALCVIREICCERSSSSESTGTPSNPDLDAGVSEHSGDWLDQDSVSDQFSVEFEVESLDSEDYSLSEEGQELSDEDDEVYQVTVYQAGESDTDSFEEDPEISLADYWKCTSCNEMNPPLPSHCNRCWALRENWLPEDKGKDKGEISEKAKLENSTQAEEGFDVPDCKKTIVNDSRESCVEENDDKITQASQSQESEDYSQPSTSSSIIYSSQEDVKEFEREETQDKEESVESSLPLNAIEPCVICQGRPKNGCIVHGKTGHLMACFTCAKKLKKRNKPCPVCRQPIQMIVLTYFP
Sequence of p53 (Homo sapiens) (P04637 whole entry): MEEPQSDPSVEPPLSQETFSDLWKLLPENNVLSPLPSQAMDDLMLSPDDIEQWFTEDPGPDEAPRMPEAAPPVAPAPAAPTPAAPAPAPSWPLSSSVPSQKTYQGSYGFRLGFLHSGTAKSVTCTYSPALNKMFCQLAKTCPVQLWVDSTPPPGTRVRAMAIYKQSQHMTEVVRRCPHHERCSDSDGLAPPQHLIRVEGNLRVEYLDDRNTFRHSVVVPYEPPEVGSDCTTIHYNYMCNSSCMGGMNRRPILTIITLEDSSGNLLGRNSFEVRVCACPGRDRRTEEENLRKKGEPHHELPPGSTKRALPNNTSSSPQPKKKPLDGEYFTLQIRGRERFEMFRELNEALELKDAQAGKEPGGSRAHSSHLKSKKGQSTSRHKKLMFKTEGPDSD
Sequence of p73 (Homo sapiens) (O15350 whole entry): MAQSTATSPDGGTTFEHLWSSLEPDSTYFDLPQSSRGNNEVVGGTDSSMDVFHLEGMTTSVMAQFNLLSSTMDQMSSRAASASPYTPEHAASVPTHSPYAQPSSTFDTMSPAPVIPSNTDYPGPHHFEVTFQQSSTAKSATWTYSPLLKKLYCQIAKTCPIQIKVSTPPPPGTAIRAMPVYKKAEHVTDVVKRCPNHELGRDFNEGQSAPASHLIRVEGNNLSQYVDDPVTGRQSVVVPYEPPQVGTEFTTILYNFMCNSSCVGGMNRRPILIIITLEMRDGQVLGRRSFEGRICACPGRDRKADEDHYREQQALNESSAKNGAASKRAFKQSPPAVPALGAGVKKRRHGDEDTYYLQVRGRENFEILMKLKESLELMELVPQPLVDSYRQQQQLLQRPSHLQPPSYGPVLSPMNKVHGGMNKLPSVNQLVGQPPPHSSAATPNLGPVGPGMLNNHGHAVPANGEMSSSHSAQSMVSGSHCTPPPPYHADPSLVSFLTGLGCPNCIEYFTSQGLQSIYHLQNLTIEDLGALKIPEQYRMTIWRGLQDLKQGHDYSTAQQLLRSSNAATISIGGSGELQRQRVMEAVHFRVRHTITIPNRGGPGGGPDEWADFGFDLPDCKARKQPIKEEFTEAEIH
Sequence of p63 DBD (Homo sapiens) (Q9H3D4 166-362): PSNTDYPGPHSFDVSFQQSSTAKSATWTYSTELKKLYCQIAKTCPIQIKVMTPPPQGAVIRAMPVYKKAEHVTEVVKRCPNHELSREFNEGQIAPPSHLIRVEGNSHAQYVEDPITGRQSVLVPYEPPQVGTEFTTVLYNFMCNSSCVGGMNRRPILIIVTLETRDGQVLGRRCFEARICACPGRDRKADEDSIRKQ

Consider Azurin (from UniProt P00282), for which the dissociation constant (Kd) in series [1] was 1300 nM and 1200 nM.
For MDM2 (from UniProt Q00987), the dissociation constant (Kd) was 390 nM in series [2] and 1000 nM in series [3].
As for p28 p28 peptide (from UniProt P00282), the Kd in series [4] is 1000 nM; in series [5], 100 nM.
